From PMC6061939 (Biochemical and biophysical research communications, 2017) come the findings set out here.

What all share (experiment): SEC
Test [1] has as its target Dictyostelium discoideum Mdm12 (residues S2-N202) (Dictyostelium discoideum).
For test [2], the target named is Saccharomyces cerevisiae Mmm1Δ (SMP domain) (Saccharomyces cerevisiae) (UniProt P41800).
Test [3] addresses T1, Saccharomyces cerevisiae Mmm1Δ (SMP domain) (Saccharomyces cerevisiae, UniProt P41800 194-409).
T1 sequence (looked up): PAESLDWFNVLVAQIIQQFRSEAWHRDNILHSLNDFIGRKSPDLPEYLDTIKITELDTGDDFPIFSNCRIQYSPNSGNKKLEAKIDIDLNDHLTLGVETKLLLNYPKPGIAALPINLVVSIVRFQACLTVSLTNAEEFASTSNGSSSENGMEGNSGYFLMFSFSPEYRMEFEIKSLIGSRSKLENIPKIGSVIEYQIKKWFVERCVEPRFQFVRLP

For orientation: stoichiometry N means a count of units in the complex or per binding partner.

In turn, “Dictyostelium discoideum Mdm12 (residues S2-N202) (natural protein)” returned a stoichiometry N in test [1] of 2. Consider “Saccharomyces castellii Mdm12 (residues S2-E244) (natural protein)”, for which, in test [2], the stoichiometry N came to 1.

B1: Saccharomyces cerevisiae Mdm12 (natural protein)
chain: MSFDINWSTLESDNRLNDLIRKHLNSYLQNTQLPSYVSNLRVLDFDLGKVGPAITLKEITDPLDEFYDSIREEADQETEENNDNKEDSEHICPDRTIANHEGPKDDFEAPVVMPSPNDIQFLLEVEYKGDLLVTIGADLVLNYPVEKFMTLPVKLSISDIGLHSLCIVACLSKQLFLSFLCDVSDPALDDNQTVLDPKGPILAATKPLERISIVRSMKIETEIGEQYQGQGSVLRSVGELEQFLFTIFKDFLRKELAWPSWINLDFNDGDE
With B1, the “stoichiometry N” value in test [3] was determined as 1.
